Experiments:
[1] = target: AAV2-G548 capsid (adeno-associated virus 2); assay: ELISA; plates coated with 10^9 vector genomes of AAV variants in 0.1 M sodium bicarbonate buffer pH 9.6 overnight at 4°C; antibody serially diluted in PBS with 1% BSA, 37°C for 1.5 hours; anti-mouse IgG-HRP, OD450; EC50 from a sigmoidal fit
[2] = target: AAV2-G548 capsid (adeno-associated virus 2)
[3] = target: AAV2-E548 capsid (wild-type AAV2 capsid) (Adeno-associated virus 2, wild type …, UniProt P03135); assay: cell-based or functional assay
AAV2-E548 capsid (wild-type AAV2 capsid), sequence (P03135 whole entry, looked up, the tested form may be a part): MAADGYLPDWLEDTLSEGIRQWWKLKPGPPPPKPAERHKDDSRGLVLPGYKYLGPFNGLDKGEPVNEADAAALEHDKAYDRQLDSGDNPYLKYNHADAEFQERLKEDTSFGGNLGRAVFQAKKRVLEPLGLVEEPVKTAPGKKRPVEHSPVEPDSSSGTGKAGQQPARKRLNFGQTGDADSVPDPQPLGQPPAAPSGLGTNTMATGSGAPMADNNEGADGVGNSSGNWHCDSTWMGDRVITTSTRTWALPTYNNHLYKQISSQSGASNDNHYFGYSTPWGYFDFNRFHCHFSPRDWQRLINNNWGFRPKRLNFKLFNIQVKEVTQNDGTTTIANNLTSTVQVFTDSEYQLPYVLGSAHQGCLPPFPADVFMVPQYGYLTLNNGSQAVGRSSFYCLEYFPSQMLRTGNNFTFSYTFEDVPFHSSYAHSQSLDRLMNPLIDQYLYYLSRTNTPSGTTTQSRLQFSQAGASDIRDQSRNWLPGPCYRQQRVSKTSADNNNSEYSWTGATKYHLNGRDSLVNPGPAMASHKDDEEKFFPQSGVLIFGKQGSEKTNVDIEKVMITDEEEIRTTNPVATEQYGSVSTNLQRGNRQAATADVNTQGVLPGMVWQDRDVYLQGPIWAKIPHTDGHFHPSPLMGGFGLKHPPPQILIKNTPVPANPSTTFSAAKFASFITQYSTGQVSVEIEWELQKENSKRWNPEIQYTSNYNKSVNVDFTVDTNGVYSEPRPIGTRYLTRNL

B1: mouse monoclonal antibody A20 (antibody, V domains shown)
VH: DVQLQESGPDLVKPSQSLSLTCTVTGYSITSGYTWHWIRQFPGNKQEWMGYIHFSGYTNYNPSLKSRVSITRDTSKNQFFLHLNSVTTEDTATYYCARGDYGYEWFTYWGQGTLVTVSA
VL: DIQMTQSSSSFSVSLGDRVTITCKASEDIHNRLAWYKQKPGNAPRLLISGATSLETGVPSRFSGSGSGKDYTLSITSLQNEDVATYYCQQYWIGPFTFGSGTNLEIK
B1 was tested, and the OD450 at the highest A20 concentration (10 μg/ml) [1] was 0.132 OD450, the neutralization of the lacZ AAV vector's transduction of 293 cells (β-galactosidase assay), average IC50 [2] was 0.201 µg/mL and the “neutralization of the lacZ AAV vector's transduction of 293 cells (β-galactosidase assay), average IC50” value [3] was 0.2 µg/mL.

Reference: article PMC11182496, “Dissecting positive selection events and immunological drives during the evolution of adeno-associated virus lineages” (PLOS Pathogens, 2024)
